Where only a bound is given, the exact number is not on record here.

Experiment [1] concerns the target human IGF-1R on H322M non-small cell lung cancer cells (human, UniProt P08069 31-1367). In words: cell-based or functional assay.
The target of experiment [2] is T1, sIGF-1R(1-903) (human, UniProt P08069 31-933).
T1 construct: also called soluble IGF-1R ectodomain
In words: SEC with static light scattering.
Description: Analytical size exclusion chromatography (SEC) with in-line static light scattering. […] All samples contained 25 μg of each protein diluted to a final volume of 50 μL in PBS, pH 7.2, before injection onto the SEC column onto a TSKgel G3000SW XL, 5 mm, 250 Å Analytical SEC column (Tosoh Biosciences) equilibrated in 10 mM phosphate, 150 mM NaCl, 0.02% sodium Azide at pH 6.8 using an Agilent 1100 HPLC system. Light scattering data for material eluting from the SEC column were collected using a miniDAWN static light scattering detector coupled to an in-line refractive index meter (Wyatt Technologies). Light scattering data were analyzed using the ASTRA V software provided by the manufacturer.
All samples were diluted to a final volume of 50 μL in PBS, pH 7.2 before SEC/static light scattering analysis.

Experiment [3] deals with T2, hIGF-1R-Fc mutant SD015 (H464E) (human, UniProt P08069 31-933).
T2 construct: not shown: human IgG1 Fc, C-terminal tag
Kind of experiment: SPR (Biacore relative RUmax) and tr-FRET competition. The method, then: (§1) After, completion of the receptor-Fc loading step, flow rates were elevated to 5 μl/min. […] At the end of each sensorgram, the flow rate was elevated to 30 μl/min and the chip surface was regenerated by 2×10 μL injections of 0.1 M glycine, pH 2.
A general note: SPR reads the build-up and loss of mass on a sensor chip optically.

For experiment [4], the target named is T1, sIGF-1R(1-903). In words: ITC, 25 °C; footnote a: affinity too high for accurate measurement. The method, then:
Isothermal Titration Calorimetry (ITC). […] The reagents were co-dialyzed against PBS, pH 7.2. The protein solutions were adjusted to the concentrations listed above by dilution using PBS dialysate. […] The protein solutions were prepared as described above for the MAb binding experiments. All ITC experiments were performed on an ITC₂₀₀ microcalorimeter (MicroCal, LLC) at 25° C. […] IGF-1R bispecific antibodies. A four minute equilibration period was used between all injections with an initial delay of 60 seconds. Numerical integration of the data was performed using the ITC data analysis software supplied by MicroCal (Origin). ΔHA° (T) values were calculated based on the difference between the average heat liberated/absorbed during the binding phase of the injections and the average heat of dilution found once the receptor, IGF-1R, was saturated with MAb or BsAb.
For orientation: In ITC the heat of successive injections is recorded.

The target of experiment [5] is T1, sIGF-1R(1-903). Kind of experiment: equilibrium solution-phase SPR, free sIGF-1R(1-903) read on C06 surface.
For experiment [6], the target named is T3, human IGF-1R(1-903)-Fc (human, UniProt P08069 31-933).
T3 construct: also called hIGF-1R-Fc; SDWT; not shown: human IgG1 Fc, C-terminal tag
In words: IGF-1 blocking ELISA at 320 nM IGF-1 His on biotinylated hIGF-1R-Fc. The procedure: The dilutions were added to the plates in duplicate at 100 μL/well and the plates were incubated at RT for 1 hour. The plates were then washed four times with 200 μL/well PBST. An HRP-conjugated anti-Histag antibody (Penta-His HRP Conjugate, QIAGEN, Cat. No. 1014992) was diluted 1:1000 in PBST and added to plates at 100 μL/well, and the plates were incubated at RT for one hour. The plates were then washed four times with 200 μL/well PBST. SureBlue Reserve TMB Microwell Peroxidase Substrate (KPL, Cat. No. 53-00-01) was added to plates at 100 μL/well followed by 1% phosphoric acid at 100 μL/well once the desired reaction was observed. The absorbance of each well was determined at 450 nm, and the results were normalized and plotted against the log of antibody concentration.
Ligand Blocking Properties.
Background: ELISA stands for enzyme-linked immunosorbent assay.

The target in experiment [7] is T4, human IGF-1R(1-902)-His10 (human, UniProt P08069 31-932).
T4 construct: Bought from R&D Systems (305-GR-050); also called hIGF-1R-His10; hIGF-1R-His
In words: SPR competition (Biacore 3000): soluble antibody titrated into 40 nM hIGF-1R-His, mixture injected over immobilized M13-C06. The procedure: Regeneration was achieved by three 10 μL injections of 0.1 M glycine, pH 2.0. 100% hIGF-1R-His binding to each antibody was determined by the signal above the baseline under mass transport-limiting conditions 60 seconds into the injection.

Experiment [8] has as its target T3, human IGF-1R(1-903)-Fc. Kind of experiment: IGF-2 blocking ELISA: antibody titrated in 640 nM IGF-2 His on biotinylated hIGF-1R-Fc on streptavidin plates, bound ligand detected with anti-His-HRP.
Experiment [9] concerns the target T5, hIGF-1R-Fc mutant SD102 (E459A, S460A) (human, UniProt P08069 31-933).
T5 construct: not shown: human IgG1 Fc, C-terminal tag
In words: SPR, Fab over captured mutant. The method, then: (§2) Surface plasmon resonance (SPR) experiments were performed on a Biacore 3000 instrument set to 25° C. […] The antibody sensorchip surfaces were prepared by injecting each antibody (diluted 100 μg/mL in 10 mM Acetate, pH 4.0) over EDC/NHS-activated sensorchip surfaces according to the standard protocol of the manufacturer. […] Both hIGF-1R-Fc and mIGF-1R-Fc proteins oligomerize due to the incorporation of two separate homodimeric regions (IGF-1R and IgG1-Fc). […] After, completion of the receptor-Fc loading step, flow rates were elevated to 5 μl/min. […] Dissociation was measured for 7 minutes after the antibody injections were complete. Finally, the flow rate was elevated to 30 μL/min and the chip surfaces were regenerated by 2×10 μL injections of 0.1 M glycine, pH 2.

Experiment [10] addresses T6, hIGF-1R-Fc mutant SD103 (D461A, V462T) (human, UniProt P08069 31-933).
T6 construct: not shown: human IgG1 Fc, C-terminal tag
In words: SPR, Fab over captured mutant. The procedure: as §2

The target in experiment [11] is T7, hIGF-1R-Fc mutant SD104 (H464A) (human, UniProt P08069 31-933).
T7 construct: not shown: human IgG1 Fc, C-terminal tag
In words: SPR, Fab over captured mutant. The procedure: as §2

Experiment [12] has as its target T8, hIGF-1R-Fc mutant SD108 (H480E) (human, UniProt P08069 31-933).
T8 construct: not shown: human IgG1 Fc, C-terminal tag
Kind of experiment: SPR, Fab over captured mutant. The procedure: as §2

Experiment [13] deals with T9, hIGF-1R-Fc mutant SD109 (Y482A, R483W) (human, UniProt P08069 31-933).
T9 construct: not shown: human IgG1 Fc, C-terminal tag
In words: SPR, Fab over captured mutant. The method, then:
as §2

Experiment [14] addresses T10, hIGF-1R-Fc mutant SD113 (E570A, I571T) (human, UniProt P08069 31-933).
T10 construct: not shown: human IgG1 Fc, C-terminal tag
In words: SPR, Fab over captured mutant. The method, then:
as §2

The target in experiment [15] is T2, hIGF-1R-Fc mutant SD015 (H464E). In words: SPR (Biacore 3000): SD015 captured on immobilized M13-C06 surface, M13-C06 (Fab according to paragraph 695) injected at 0, 1, 3, 10 nM. The method, then: as §1

T1 sequence (P08069 31-933): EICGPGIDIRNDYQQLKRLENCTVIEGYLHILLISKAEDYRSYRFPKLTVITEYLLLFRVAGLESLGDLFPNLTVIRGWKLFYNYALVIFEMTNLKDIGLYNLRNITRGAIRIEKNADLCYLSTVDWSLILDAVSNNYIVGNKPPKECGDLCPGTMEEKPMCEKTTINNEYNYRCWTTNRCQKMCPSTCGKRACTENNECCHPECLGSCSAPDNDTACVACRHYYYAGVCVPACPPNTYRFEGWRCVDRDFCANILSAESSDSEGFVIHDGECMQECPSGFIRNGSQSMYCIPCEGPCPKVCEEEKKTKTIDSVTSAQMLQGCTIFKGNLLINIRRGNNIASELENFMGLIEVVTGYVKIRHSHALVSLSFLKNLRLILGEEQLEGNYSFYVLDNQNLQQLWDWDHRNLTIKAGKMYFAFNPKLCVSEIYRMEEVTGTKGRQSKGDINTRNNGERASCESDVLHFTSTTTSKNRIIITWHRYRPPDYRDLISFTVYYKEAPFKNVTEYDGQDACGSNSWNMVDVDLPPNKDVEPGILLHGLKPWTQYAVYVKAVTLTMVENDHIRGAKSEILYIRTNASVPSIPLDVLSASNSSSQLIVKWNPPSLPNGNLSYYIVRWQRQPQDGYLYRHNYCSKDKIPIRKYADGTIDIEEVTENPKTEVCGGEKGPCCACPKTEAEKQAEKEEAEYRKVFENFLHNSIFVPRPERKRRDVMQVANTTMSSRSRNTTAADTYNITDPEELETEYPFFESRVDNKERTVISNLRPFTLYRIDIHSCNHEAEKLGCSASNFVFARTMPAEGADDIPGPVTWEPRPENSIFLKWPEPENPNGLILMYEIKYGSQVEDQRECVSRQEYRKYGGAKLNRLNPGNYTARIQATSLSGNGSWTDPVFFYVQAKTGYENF
T3 sequence (P08069 31-933): as above
T2 sequence (P08069 31-933 H494E): as the sequence (P08069 31-933) above, with H464E counted along it
human IGF-1R on H322M non-small cell lung cancer cells, sequence (P08069 31-1367, stated change not applied): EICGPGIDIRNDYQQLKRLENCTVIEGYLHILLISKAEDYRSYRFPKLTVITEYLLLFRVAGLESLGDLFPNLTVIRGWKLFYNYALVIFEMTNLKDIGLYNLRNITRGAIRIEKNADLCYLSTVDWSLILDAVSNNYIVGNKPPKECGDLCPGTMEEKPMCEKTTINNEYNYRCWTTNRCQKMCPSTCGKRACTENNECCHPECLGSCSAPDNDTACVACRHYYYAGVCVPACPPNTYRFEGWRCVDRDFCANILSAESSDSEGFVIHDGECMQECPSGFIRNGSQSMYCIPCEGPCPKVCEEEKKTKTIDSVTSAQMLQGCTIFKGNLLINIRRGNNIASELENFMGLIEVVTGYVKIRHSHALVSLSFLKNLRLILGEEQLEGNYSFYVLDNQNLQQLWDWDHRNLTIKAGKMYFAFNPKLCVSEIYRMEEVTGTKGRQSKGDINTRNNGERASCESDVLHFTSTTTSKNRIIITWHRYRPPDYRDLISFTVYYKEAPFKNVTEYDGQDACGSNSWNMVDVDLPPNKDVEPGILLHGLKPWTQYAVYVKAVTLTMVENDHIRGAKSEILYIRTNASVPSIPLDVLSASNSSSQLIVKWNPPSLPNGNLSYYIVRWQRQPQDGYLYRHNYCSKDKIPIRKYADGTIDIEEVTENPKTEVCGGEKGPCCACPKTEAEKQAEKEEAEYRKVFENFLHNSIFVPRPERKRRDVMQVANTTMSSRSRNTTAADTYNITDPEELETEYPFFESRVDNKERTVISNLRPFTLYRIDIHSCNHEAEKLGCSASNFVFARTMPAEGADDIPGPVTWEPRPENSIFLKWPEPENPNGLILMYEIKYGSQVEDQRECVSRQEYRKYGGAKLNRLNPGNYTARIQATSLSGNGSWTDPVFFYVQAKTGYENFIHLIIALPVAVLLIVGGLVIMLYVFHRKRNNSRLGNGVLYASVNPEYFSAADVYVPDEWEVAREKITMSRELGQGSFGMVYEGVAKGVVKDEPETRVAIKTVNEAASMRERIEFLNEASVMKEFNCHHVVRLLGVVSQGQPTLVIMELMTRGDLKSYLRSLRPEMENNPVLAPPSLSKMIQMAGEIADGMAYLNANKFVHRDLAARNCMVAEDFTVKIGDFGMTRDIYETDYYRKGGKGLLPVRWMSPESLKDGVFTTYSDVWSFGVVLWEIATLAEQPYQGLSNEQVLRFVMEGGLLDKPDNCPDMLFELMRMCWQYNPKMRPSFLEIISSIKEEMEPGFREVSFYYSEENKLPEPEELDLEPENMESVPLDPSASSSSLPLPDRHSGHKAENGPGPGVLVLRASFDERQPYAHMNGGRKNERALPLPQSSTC
T10 sequence (P08069 31-933 E600A/I601T): as the sequence (P08069 31-933) above, with E570A, I571T counted along it
T5 sequence (P08069 31-933 E489A/S490A): as the sequence (P08069 31-933) above, with E459A, S460A counted along it
T8 sequence (P08069 31-933 H510E): as the sequence (P08069 31-933) above, with H480E counted along it
T9 sequence (P08069 31-933 Y512A/R513W): as the sequence (P08069 31-933) above, with Y482A, R483W counted along it
T7 sequence (P08069 31-933 H494A): as the sequence (P08069 31-933) above, with H464A counted along it
T6 sequence (P08069 31-933 D491A/V492T): as the sequence (P08069 31-933) above, with D461A, V462T counted along it
T4 sequence (P08069 other isoform, or with tags, fused parts or gaps): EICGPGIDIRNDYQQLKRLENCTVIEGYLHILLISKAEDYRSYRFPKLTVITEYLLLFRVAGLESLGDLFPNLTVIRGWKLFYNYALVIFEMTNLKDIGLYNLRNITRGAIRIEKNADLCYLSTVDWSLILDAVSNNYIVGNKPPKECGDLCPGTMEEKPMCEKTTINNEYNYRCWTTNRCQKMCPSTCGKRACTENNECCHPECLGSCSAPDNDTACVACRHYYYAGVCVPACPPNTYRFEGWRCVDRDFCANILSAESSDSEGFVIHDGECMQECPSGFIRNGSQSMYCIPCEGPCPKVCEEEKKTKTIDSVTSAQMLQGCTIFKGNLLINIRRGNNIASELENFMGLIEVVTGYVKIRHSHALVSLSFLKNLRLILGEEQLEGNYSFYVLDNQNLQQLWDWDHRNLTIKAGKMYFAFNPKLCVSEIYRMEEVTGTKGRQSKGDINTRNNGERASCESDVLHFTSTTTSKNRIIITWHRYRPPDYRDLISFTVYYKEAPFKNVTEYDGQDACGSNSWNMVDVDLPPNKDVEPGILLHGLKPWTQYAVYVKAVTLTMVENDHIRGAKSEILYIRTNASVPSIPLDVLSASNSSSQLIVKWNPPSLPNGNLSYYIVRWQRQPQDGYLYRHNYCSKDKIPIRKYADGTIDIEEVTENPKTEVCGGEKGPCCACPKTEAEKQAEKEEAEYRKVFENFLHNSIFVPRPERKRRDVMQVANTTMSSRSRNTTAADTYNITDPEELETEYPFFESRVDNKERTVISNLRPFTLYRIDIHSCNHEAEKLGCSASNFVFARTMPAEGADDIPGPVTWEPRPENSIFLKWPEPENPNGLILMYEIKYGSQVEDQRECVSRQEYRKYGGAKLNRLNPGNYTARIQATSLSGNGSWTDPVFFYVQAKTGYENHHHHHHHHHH

B1: M13-C06 antibody (antibody, V domains shown)
VH: EVQLLESGGGLVQPGGSLRLSCAASGFTFSIYRMQWVRQAPGKGLEWVSGISPSGGTTWYADSVKGRFTISRDNSKNTLYLQMNSLRAEDTAVYYCARWSGGSGYAFDIWGQGTMVTVSS
VL: DIQMTQSPLSLSASVGDRVTITCQASRDIRNYLNWYQQKPGKAPKLLIYDASSLQTGVPSRFGGSGSGTDFSFTIGSLQPEDIATYYCQQFDSLPHTFGQGTKLEIK
notes: Fully human full-length antibody (ATCC PTA-7444); also called M13.C06.G4.P.agly; M13-C06.G4P.agly
For B1, in [1], the “reduction of surface IGF-1R after 24 hours (FACS, H322M cells)” value was greater than 70%. The “molecular weight of the complex” value in [2] is 2 MDa. The binding result in [3] was “no binding”. For the same molecule, in [4], the “-TΔS” value came to 10.6 kcal/mol; the Kd – broadly, the concentration at which binding is half-saturated – was no more than 5 nM; the ΔG is -11.3 kcal/mol. For the same molecule, in experiment [5], the Kd was found to be 0.1 nM and the “n (#C06 specific binding sites)” value came out at 1. Moreover, the “IC50 (read off the curve)” value in experiment [6] was roughly 1000 pM. The “IC50 (read off the curve)” value in experiment [7] is roughly 30 nM. The “IC50 (read off the curve)” value in experiment [8] is roughly 1000 pM.

B2: M13-C06 Fab (Fab, V domains shown)
VH: EVQLLESGGGLVQPGGSLRLSCAASGFTFSIYRMQWVRQAPGKGLEWVSGISPSGGTTWYADSVKGRFTISRDNSKNTLYLQMNSLRAEDTAVYYCARWSGGSGYAFDIWGQGTMVTVSS
VL: DIQMTQSPLSLSASVGDRVTITCQASRDIRNYLNWYQQKPGKAPKLLIYDASSLQTGVPSRFGGSGSGTDFSFTIGSLQPEDIATYYCQQFDSLPHTFGQGTKLEIK
notes: Fab made by enzymatic digestion of the IgG
As to B2, the binding result in experiment [9], in experiment [10], in experiment [11], in experiment [12], in experiment [13] and in experiment [14] was “no binding (tested: up to 10 nM Fab)” throughout. Also, the binding result in experiment [15] is “no binding (tested: 10 nM)”. In addition, in [5], the Kd stood at 0.6 nM. Besides, the “n (#C06 specific binding sites)” value in experiment [5] worked out at 2.

Values taken from patent US20090130105A1 (Biogen, published 2009).
